For this data set the following is noted: acetylation at K3.

Regarding protein VII: K3Q acetyl mimic, the localisation_or_trafficking entry is “no change”.

The record behind these values is article PMC11852808.
